Reference: US20180320177A1, “COMPOSITIONS AND METHODS FOR THE TREATMENT OF LIVER FIBROSIS” (UNIVERSITY OF CONNECTICUT, priority 2015, published 2018)

How the values were obtained:
[1] = tested on: CGR8 ES cells; test: qPCR of ES markers and three-germ layer genes in CGR8 ES cells and EBs; format: cell-based, mouse; settings: miR-127 lentivirus versus GFP; CGR8 ES cells and 4d EBs
Description: RNA Isolation and Analysis: RNA was isolated using TRIzol® (Thermo Fisher) according to the manufacturer's instructions. For quantitative real time RT-PCR (q-PCR), RNA was reverse transcribed using iScript™ cDNA Synthesis Kit (Bio-Rad). The resultant cDNA was amplified and quantified using SsoAdvance™ Universal SYBR® Green Supermix (Bio-Rad) in CFX384 Touch™ Real-Time PCR Detection System (BioRad). qPCR was performed in triplicate for each sample and repeated at three times. Ct values were used to calculate the relative expression level normalized to the levels of Hprt1 or beta-actin expression.
(§1) ES cells EB formation and TICs spheroid assay: CGR8 ES cells were trypsinized into single cells and cultured in ES medium devoid of LIF in hanging drops (900 cells per EB) for 2 d and transferred to ultralow attachment plate for a further 2 d suspension culture. Then, EBs were plated onto gelatin coated tissue-culture plate for further 7 d spontaneously differentiation.
(§2) Right, western blot of HMGB2, RhoA, CDC42, Rac1/2/3 in TIC cells which were infected with miR-127 or GFP lentivirus.

[2] = tested on: TIC cells; test: TIC cell spheroid assay; format: cell-based; settings: TIC cells infected with miR-127 lentivirus (FIG. 15C)
Description: TIC cells were trypsinized into single cells and 1000 cells were suspended in serum free TIC medium with 1% methylcellulose supplemented with B27, 20 ng/ml EGF and 20 ng/ml FGF in each well of 96-well ultralow attachment plate.

[3] = tested on: HMGB2 protein; test: Western blot of HMGB2 protein in HCC cells transfected with miR-127; format: cell-based, human; settings: HCC cells transfected with miR-127 (FIGS. 12C-F)
Description: (§3) Western Blotting: Total protein lysates were prepared from livers and cells in lysis buffer containing 50 mM Tris, pH 8.0, 1% Nonidet™ P-40, 150 mM NaCl, 0.5% sodium deoxycholate, 0.1% SDS with protease inhibitors (Thermo Fisher Scientific) and subjected to immunoblotting. Nuclear and cytoplasmic subcellular fractions were prepared using NE-PER nuclear and cytoplasmic extraction reagents (Pierce) according to the manufacturer's instructions. The blot was incubated with a primary antibody, followed by a secondary antibody conjugated to horseradish peroxidase. ECL kit (Pierce) was used to detect the reactivity. The following antibodies were obtained from Cell Signaling Technology: HMGB2, HMGB1, AKT, p-AKT, mTOR, p-mTOR, ERK1/2, pERK1/2, Raptor, Rictor, p53, p21, p-Bad, Smad4, p-Smad2/3, Lamin A/C, a-SMA, MMP2, MMP9, TIMP1, RhoA, Rho-GTP, Cdc42, Rac1/2/3. Anti-HA antibody and anti-beta actin antibody were purchased from Sigma and Santa Cruz Biotechnology, respectively.
Cell culture, Cell transfection:HEK293T, Hela, Hep3B and MHCC97H cells were cultured and transfected using X-tremeGENE™ HP DNA transfection reagent (Roche) as described previously. […]

[4] = tested on: MMP and Rho signaling; test: Western blot of MMP and Rho signaling in TIC cells; format: cell-based; settings: TIC cells, miR-127 lentivirus versus GFP (FIG. 15B)
Description: as §3
Cell Lines The LX-2 human stellate cell line was maintained in Dulbecco's Modified Eagle's Medium (DMEM) supplemented with 2% fetal bovine serum (FBS), 100 IU/ml penicillin, and 100 μg/ml streptomycin. Human hepatocellular carcinoma (HCC) MHCC97H cells were maintained in DMEM supplemented with 10% FBS, 100 IU/ml penicillin, and 100 μg/ml streptomycin, 1 mM HEPES, 1 mM sodium pyruvate, 2 mM L-glutamine. Tumor-initiating (TIC) cells were obtained from Dr. Hidekazu Tsukamoto at University of Southern California and were maintained in 1:1 DMEM:F12 supplement with 100 U/ml penicillin and 100 μg/ml streptomycin, 2 mM glutamine, 20 ng/ml mouse EGF, 10 nM dexamethasone, 1× embryomax nucleotides. All the cells were maintained at 37° C. humidified atmosphere with 5% CO2. TIC cells were infected with Hmgb2 shRNA lentivirus for 48 hr, and treated with 500 ng/ml puromycin for 2 weeks. The stable cells were used for migration and invasion assay, as well as western blot.

[5] = tested on: CGR8 ES cells; test: CGR8 ES cell differentiation and EB formation; format: cell-based, mouse; settings: knockdown of HMGB2 (summary)
Description: (§4) Cell culture, Cell transfection:HEK293T, Hela, Hep3B and MHCC97H cells were cultured and transfected using X-tremeGENE™ HP DNA transfection reagent (Roche) as described previously. CGR8 ES cells were cultured on 0.1% gelatin coated tissue-culture dish in knockout DMEM medium containing 15% ES qualified-Fetal Bovine Serum, 2 mM L-glutamin, 0.1 mM NEAA, 0.1 mM β-mercaptoethanol, 50 μg/ml penicillin-streptomycin and 10 ng/ml Leukemia inhibitory factor (LIF). TIC cells were cultured in DMEM-F12 medium containing Embryomax nucleotides, 2 mM L-glutamin, 0.1 mM NEAA, 20 ng/ml mouse EGF, 50 μg/ml penicillin-streptomycin and […].
as §1
FIGS. 10A-C show the establishment of CGR8 cell culture and differentiation. […] Undifferentiated feeder-free CGR8 ES cells were maintained on 0.1% gelatin coated 6-cm tissue-culture dish in ES medium containing 10 ng/ml Leukemia inhibitory factor (LIF). For EB formation, CGR8 ES cells were trypsinized into single cells and cultured in ES medium devoid of LIF in hanging drops (900 cells per EB) for 2 d and in suspension culture for a further 2 d. Then, EBs were transferred onto gelatin coated tissue-culture plate for further spontaneously differentiation. ES withdraw LIF 2d, CGR8 ES cells were cultured in ES medium devoid of LIF for 2 d.
FIG. 14A is Left, Western blot of HMGB2 and SOX2 protein in HEK293T cells transfected with 0.5 μg […] expression plasmid and 0, 1 or 2 μg Flag-HMGB2 expression plasmid. Right, Western blot of HMGB2 and OCT4 protein in HEK293T cells transfected with 0.5 μg HA-OCT4 expression plasmid and 0, 1 or 2 μg Flag-HMGB2 expression plasmid. […] CGR8 cells were lysed, co-immunoprecipitated with OCT4 antibody, followed by Western blot with HMGB2 or OCT4 antibodies. FIG. 14 C is a luciferase reporter assay. HepG2 cells were infected with AAV8-GFP or AAV8-HMGB2 24 hrs before being transfected with 6*OS luciferase reporter and OCT4, SOX2 expression plasmids alone or in combination.

[6] = tested on: HMGB2 protein; test: Western blot of HMGB2 in TIC cells infected with miR-127 lentivirus; format: cell-based; settings: miR-127 lentivirus versus GFP (FIG. 15B)
Description: as §3, §2

[7] = tested on: HMGB2 3′UTR; test: HMGB2 3′UTR luciferase reporter assay in HEK293T cells; format: cell-based, human; settings: 0, 75 or 150 ng miR-127 (FIG. 12A-12B)
Description: Luciferase reporter assay: 48 h after transfection with luciferase reporter plasmid and Renilla plasmid, cells were harvested and analyzed with the Dual-Luciferase reporter assay system (Promega) as described. All assays were done in triplicates, and all values were normalized for transfection efficiency against Renilla luciferase activities.
FIG. 12A is a sequence alignment of miR-127 and the 3′-UTR of HMGB2 in human, mouse and rat. The seed match region is indicated by underline. mut, mutant FIG. 12B is a Luciferase reporter assay. Left, HEK293T cells were transfected with HMGB2 3′UTR luciferase reporter with 0, 75 or 150 ng miR-127; Middle, HEK293T cells were transfected with wild-type or mutant HMGB2 3′UTR with or without 150 ng miR-127. Right, HEK293T cells were transfected with HMGB2 3′UTR with or without miR-127 antagomir. Luciferase activity was normalized to Renilla activity. In FIG. 12C, Western blotting was performed to determine endogenous HMGB2 protein in Hela cells that were transfected with pTarget, pTarget-miR-433, or pTarget-miR-127. β-Actin served as an internal control. In FIG. 12D, Left, western blot was performed to determine HMGB2 and CREB protein level in MHCC97H cells transfected with miR-127 for 24 hrs. Right, qPCR analysis of miR-127 level in MHCC97 cells transfected with miR-127 for 0, 24, 48 hrs. […]

[8] = tested on: HMGB2 protein; test: Inhibition of HMGB2 protein by miRNAs in human and mouse cells; format: cell-based
Description: as §3, §4
We identified conserved binding sites for miR-539, miR-543, miR-181c, and miR-23α in human and mouse HMGB2 3′UTRs (not sho4wn). We tested the inhibition of HMGB2 protein by these miRNAs in both human and mouse cells. […]

[9] = miRNA overexpression, Huh7, HEK293T, Hepa1, or TIC (FIG. 11)

B1: miR-127: microRNA, accession number NR_029696.1, SEQ ID NO: 4; targets the HMGB2 3′UTR (nucleic acid, listed as Homo sapiens)
chain: TGTGATCACTGTCTCCAGCCTGCTGAAGCTCAGAGGGCTCTGATTCAGAAAGATCATCGGATCCGTCTGAGCTTGGCTGGTCGGAAGTCTCATCATC
modifications: expressed or natural sequence
- differentiation markers (Bmp5, Foxa2) [1]: increases
- stem cell marker (Oct4, Nanog, Sox2) expression [1]: decreases
- spheroid formation [2]: downregulates
- HMGB2 protein [3]: decreases HMGB2 protein
- Rhos/CDC42/Rac signaling [4]: downregulates
- CGR8 differentiation [5]: promotes CGR8 differentiation
- HMGB2 protein [6]: downregulates
- targeting of HMGB2 3′UTR (luciferase reporter) [7]: targets the HMGB2 3′UTR

B2: miR-543: microRNA, accession number NR_030619.1, SEQ ID NO: 6 (nucleic acid, listed as Homo sapiens)
chain: TACTTAATGAGAAGTTGCCCGTGTTTTTTTCGCTTTATTTGTGACGAAACATTCGCGGTGCACTTCTTTTTCAGTATC
modifications: expressed or natural sequence
- HMGB2 protein [8, 9]: decreased

B3: miR-539: microRNA, accession number NR_030256.1, SEQ ID NO: 5 (nucleic acid, listed as Homo sapiens)
chain: ATACTTGAGGAGAAATTATCCTTGGTGTGTTCGCTTTATTTATGATGAATCATACAAGGACAATTTCTTTTTGAGTAT
modifications: expressed or natural sequence
- HMGB2 protein [8, 9]: decreased
- HMGB2 protein ([8]; only in Huh7): inhibited
